From US20200087363A1 (IMMATICS BIOTECHNOLOGIES, published 2020)

Molecular target: T1, HLA-B*44:05 (human)
T1 construct: also called peptide-receptive MHC class I molecule
Assay: UV peptide exchange, anti-b2m ELISA
Experimental: Only peptide candidates that can effectively bind and stabilize the peptide-receptive MHC molecules prevent dissociation of the MHC complexes. To determine the yield of the exchange reaction, an ELISA was performed based on the detection of the light chain (β2m) of stabilized MHC complexes. The assay was performed as generally described in Rodenko et al. (Rodenko et al., 2006)
96 well MAXISorp plates (NUNC) were coated over night with 2 ug/ml streptavidin in PBS at room temperature, washed 4× and blocked for 1 h at 37° C. in 2% BSA containing blocking buffer. […] Peptide-MHC monomers of the UV-exchange reaction were diluted 100-fold in blocking buffer. Samples were incubated for 1 h at 37° C., washed four times, incubated with 2 ug/ml HRP conjugated anti-β2m for 1 h at 37° C., washed again and detected with TMB solution that is stopped with […]. Absorption was measured at 450 nm.

Row | peptide exchange yield | Binder
1 | 50 to 75% | AEGEPPPAL
2 | 50 to 75% | SEDPEKYYL
3 | 20 to 50% | DEDLFHKL
4 | 20 to 50% | AGSPVMRKW
5 | > 75% | EEEVFSGMKL
6 | 20 to 50% | SVNPIIYGF
7 | 50 to 75% | YERPTLVEL
8 | 50 to 75% | AEDNMVTSY
9 | 20 to 50% | RELPLVLLA
10 | 50 to 75% | REILHAQTL
11 | 50 to 75% | SEDTIHTHL
12 | 50 to 75% | SEASVYLFRF
13 | 50 to 75% | LEMLDAHRL
14 | 50 to 75% | SEAKEIKSQL
15 | 20 to 50% | EVEVGDRTDW
16 | 50 to 75% | WEVEVGDRTDW
17 | 20 to 50% | SEFLLRIF
18 | > 75% | MEIEGAGNFL
19 | 50 to 75% | AEGEPPPALAW
20 | > 75% | MEILWKTLT
21 | 20 to 50% | EEFLRPRSL
22 | 50 to 75% | EELALRIGL
23 | 20 to 50% | LEGGGRGGEF
24 | 50 to 75% | REAEEKEAQL
25 | 50 to 75% | VEAATVSKW
26 | 20 to 50% | TETDIDREY
27 | > 75% | TEEITEGVW
28 | 10 to 20% | ALTEDSIDDTF
29 | 50 to 75% | SEVEGLAFV
30 | > 75% | KEAFGPQAL
